± gives the standard deviation.
Assay: protein stability index of a GFP-peptide fusion (GPS, HEK-293T) (PSI 1-6); higher = more stable
[1] = treatment: DMSO, c terminus: a fixed tail appended
[2] = treatment: MLN4924 1 uM, 8 h, c terminus: a fixed tail appended
[3] = treatment: DMSO, c terminus: native
[4] = treatment: MLN4924 1 uM, 8 h, c terminus: native
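Note: 24-mer peptide tiles fused after GFP, lentivirally expressed, FACS-sorted into six equal bins by GFP/DsRed ratio, decoded by Illumina sequencing, PSI is the read-weighted mean bin number.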

Row | Sequence | protein stability index [1] | protein stability index [2] | protein stability index [3] | protein stability index [4]
1 | SLLPAQVAACAQTVVSLAAAGQPT [CEBPD] | 3.24 ± 0.9 | 2.9 ± 0.37 | – | –
2 | DTISTIKSVAWEGGACPAFLPSLR [NCF4] | 2.92 ± 0.3 | 2.9 ± 0.38 | – | –
3 | SKTFLCIGSSVMAASLVTMGIVNL [SLC2A12] | 3.19 ± 0.72 | 3.3 ± 0.54 | – | –
4 | LLRQQLMRAQAQEQERRERREQAA [TFE3] | 3.82 ± 0.27 | 4.2 ± 0.15 | – | –
5 | ATLPGIFMLLLIFFAFLHCWLNAF [SOAT2] | 2.46 ± 0.5 | 2.3 ± 0.36 | – | –
6 | QSKGHGRAVDWWALGILIFEMLSG [PRKX] | 2.58 ± 0.58 | 2.56 ± 0.36 | – | –
7 | DVEVPASVTGYSFASDGDSGTCSP [ADD1] | 5.16 ± 0.19 | 5.29 ± 0.11 | – | –
8 | TNNNIKQRLIKKVQEAVLDKWVND [GOLPH3] | 2.37 ± 0.4 | 2.36 ± 0.31 | – | –
9 | PRGRAHLLPNPYQQDFLGLPEELR [C22orf15] | 3.92 ± 0.24 | 4.31 ± 0.11 | – | –
10 | PEIQKVRAQEREQIKALNNKFASF [KRT71] | 3.78 ± 0.32 | 3.86 ± 0.44 | – | –
11 | LPEQVDIIISEPMGYMLFNERMLE [CARM1] | 2.24 ± 0.69 | 2.12 ± 0.42 | – | –
12 | DSEQVPQALRRLRPRTRKVKSVSP [NCF4] | 5.21 ± 0.25 | 5.11 ± 0.24 | – | –
13 | IHPDEDISLEERRAQLPKYQRNLP [ZNF207] | 4.19 ± 0.27 | 4.46 ± 0.31 | – | –
14 | APLRKLSVDLIKTYKHINEVYYAK [DYRK1B] | 2.84 ± 0.15 | 2.96 ± 0.25 | – | –
15 | LSNLTHVLYPVPLESYEDIHGTLH [PRAME] | 2.5 ± 0.3 | 2.69 ± 0.27 | – | –
16 | VEWAKYIPAFCELPLDDQVALLRA [HNF4A] | 2.42 ± 0.64 | 2.44 ± 0.42 | – | –
17 | EDQAEAWGCSCCPPETKHQALSGT [TSPAN10] | 4.71 ± 0.31 | 4.67 ± 0.18 | – | –
18 | EVDPTGHSFVLVTSLGLTYDGMLS [MAGEA10] | 2.51 ± 0.47 | 2.52 ± 0.51 | – | –
19 | TASGDCYTFGSNQHGQLGTNTRRG [NEK8] | 4.56 ± 0.14 | 4.67 ± 0.15 | – | –
20 | SFPLEWAPQNLTRWTFEKACHPFL [TOR1AIP2] | 2.12 ± 0.093 | 2.31 ± 0.12 | – | –
21 | DGASVNENHEIYMKDSMSAAEVGT [EPB41L3] | 5.31 ± 0.28 | 5.34 ± 0.32 | – | –
22 | VIAINYNEKIYELRVMETKPDKAV [UFD1] | 1.89 ± 0.27 | 2.39 ± 0.24 | – | –
23 | VAQTSLEEFNVLEMEVMRRQLYAV [FATE1] | 2.31 ± 0.37 | 2.21 ± 0.44 | – | –

Row | Sequence | protein stability index [1] | protein stability index [2] | protein stability index [3] | protein stability index [4]
24 | SFTLADVSLAVTLHRLKFLGFARR [GDAP1] | 2.5 ± 0.64 | 2.33 ± 0.33 | – | –
25 | FKHILRTEGAFGLYRGLAPNFMKV [SLC25A25] | 2.18 ± 0.31 | 2.29 ± 0.32 | – | –
26 | WLFGATAVALGGVALSVVIAARN [FKBP8] | – | – | 2.51 ± 0.55 | 2.59 ± 0.4
27 | VAELFCRRCRRCVCALCPVLGAHR [TRIM14] | 2.25 ± 0.1 | 2.49 ± 0.39 | – | –
28 | NCSIGPNVSLGPGVVVEDGVCIRR [GMPPB] | 4.29 ± 0.3 | 4.393 ± 0.043 | – | –
29 | QQDLERSLQDASRGDPAHAGLAEL [PBXIP1] | 5.32 ± 0.18 | 5.38 ± 0.16 | – | –
30 | SEDNTSFDRKKKSISLMYGGSKRK [SLA] | 4.66 ± 0.26 | 4.91 ± 0.27 | – | –
31 | ERKQALYEYARRRFTERRAQEAD [AUP1] | – | – | 4.22 ± 0.15 | 4.25 ± 0.29
32 | PATALGTASYPSDGCGADGLRSRV [NOL4L] | 4.39 ± 0.27 | 4.55 ± 0.26 | – | –
33 | FRLKTINLQSLINNEIPDCYTFSV [MCOLN1] | 2.76 ± 0.41 | 2.51 ± 0.39 | – | –
34 | IKPPPPLVLNSQQSDTLEQREEHE [RAD54B] | 5.23 ± 0.13 | 5.3 ± 0.34 | – | –
35 | EMAEQLMTLAYDNGINLFDTAEVY [KCNAB2] | 2.3 ± 0.44 | 2.44 ± 0.29 | – | –
36 | VCTDTDRWSLISLSNKNGKNVELK [TENT5C] | 3.46 ± 0.27 | 3.57 ± 0.17 | – | –
37 | RQTTGLMEYCLEVIKENDPSGFLQ [TRIM9] | 3.11 ± 0.24 | 3.05 ± 0.34 | – | –
38 | FDDYSATLPLTLIVILENIAVAWI [SLC6A17] | 2.69 ± 0.44 | 3.28 ± 0.71 | – | –
39 | ADDESETPEELEEEIPVVICAAAG [GLT8D2] | 5.582 ± 0.029 | 5.5 ± 0.35 | – | –
40 | KKNWRRVYKSLLLLAYLIRNGSER [CLINT1] | 2.35 ± 0.65 | 2.44 ± 0.29 | – | –
41 | PKGEPGSKQSPPMASSPIQPRKGG [FBF1] | 5.33 ± 0.1 | 5.38 ± 0.091 | – | –
42 | NGADVNIQSKDGKSPLHMTAVHGR [ANKRD44] | 4.44 ± 0.22 | 4.46 ± 0.11 | – | –
43 | TNVRLQPAATWNLEEKRLTWRLPD [FCHO1] | 3.27 ± 0.32 | 3.34 ± 0.24 | – | –
44 | TPFQSVPPTVSQTPVIAATPVPTI [BRD3] | 4.06 ± 0.24 | 3.94 ± 0.13 | – | –
45 | SGRLMGSPPVPGPSAALTTMQLFS [FBXO28] | 2.71 ± 0.25 | 2.63 ± 0.21 | – | –
46 | DMVEFLLEQCSASIEVGGSVNFDG [FEM1C] | 2.17 ± 0.76 | 2.4 ± 0.24 | – | –

Row | Sequence | protein stability index [1] | protein stability index [2] | protein stability index [3] | protein stability index [4]
47 | ERRPRRVEAERPHSLIGVIRETVL [FAM189A2] | 3.64 ± 0.32 | 3.91 ± 0.41 | – | –
48 | ESDSCQKCEQPFFWNIKQMWDTKT [WDFY1] | 3.25 ± 0.089 | 3.19 ± 0.24 | – | –
49 | ARIYIRRTLRNFINDEMQAKGIPQ [PCMTD1] | 2.01 ± 0.33 | 2.15 ± 0.18 | – | –
50 | GAAGRSHHLDEDEERERIERVRRI [KCTD10] | 5.31 ± 0.23 | 5.07 ± 0.46 | – | –
51 | HRRRTICGTPNYLSPEVLNKQGHG [PLK2] | 3.99 ± 0.19 | 4.17 ± 0.17 | – | –
52 | SRRPLDEAVAGAEGREAPALVAAG [DENND6A] | 4.86 ± 0.35 | 5.19 ± 0.25 | – | –
53 | GSEKVTMQNLNDRLASYLDKVRAL [KRT16] | 2.88 ± 0.2 | 2.89 ± 0.25 | – | –
54 | YFRDLPEPLMTNKLSETFLQIYQY [DLC1] | 2.37 ± 0.32 | 2.26 ± 0.24 | – | –
55 | PLGNTPMMNQSMMGMNMNIGMSAA [CLINT1] | 3.07 ± 0.21 | 2.9 ± 0.24 | – | –
56 | LQSAPDVKGRVRCLTAGPEVAAQL [ZSWIM9] | 3.51 ± 0.28 | 3.6 ± 0.058 | – | –
57 | QEMVQRPQPHRNRAGLDLPTIDTG [TRAF3IP2] | 4.5 ± 0.26 | 4.59 ± 0.19 | – | –
58 | IVWSLAFGSSVPEKQSRCVNIEWH [WSB1] | 2.92 ± 0.36 | 2.93 ± 0.21 | – | –
59 | MDGATLCNCALEELRLVFGPLGDQ [ELF3] | 2.33 ± 0.27 | 2.4 ± 0.68 | – | –
60 | QIKDFKEKIQQDADSVITVGRGEV [ACBD3] | 5.06 ± 0.18 | 5.06 ± 0.32 | – | –
61 | GHMLQHHGNSGHPLVLSYIDLSAW [HDAC6] | 2.24 ± 0.33 | 1.85 ± 0.19 | – | –
62 | MEKSSFTEYIESPDVENEVKRLLR [TAF7L] | 3.79 ± 0.28 | 3.83 ± 0.23 | – | –
63 | LFEGLGRDKAEELLQLPDTKVGSF [SLA] | 3.82 ± 0.28 | 4.13 ± 0.15 | – | –
64 | TQIIGEQNARLAELERKLREVMES [FBXO28] | 3.71 ± 0.22 | 3.68 ± 0.12 | – | –
65 | SYSRGYSYHDGYGEALGRDHSEHL [RBMY1A1] | 3.5 ± 0.28 | 3.38 ± 0.26 | – | –
66 | AASSAKMGLVETKLAIIPGGGGTQ [AUH] | 3.83 ± 0.66 | 4.61 ± 0.51 | – | –
67 | GEAAGSSLIGHLQTLSPDMQGAYC [DUSP5] | 3.82 ± 0.34 | 3.87 ± 0.26 | – | –
68 | NRVSAIIFSLATEWVISTGHDKCV [WDFY1] | 2.96 ± 0.23 | 2.89 ± 0.4 | – | –
69 | SFVESANSEVYLPNINKISMQAVL [RHOBTB1] | 2.43 ± 0.21 | 2.2 ± 0.34 | – | –

Row | Sequence | protein stability index [1] | protein stability index [2] | protein stability index [3] | protein stability index [4]
70 | SARYLEAALRLHRLLRDSEAFCHA [P3H4] | 2.51 ± 0.23 | 2.07 ± 0.2 | – | –
71 | LEKGSFVGNISKDLGLAPRELAER [PCDHGA10] | 4.43 ± 0.35 | 4.54 ± 0.33 | – | –
72 | IGMPFNQLGTLAGSKYYNVEAMYC [SMG5] | 2.36 ± 0.51 | 2.27 ± 0.3 | – | –
73 | TNEAACLLDNPLCADVLFILQDQE [RHOBTB1] | 3.66 ± 0.24 | 3.82 ± 0.24 | – | –
74 | YGPRWQEVIPYTPAMQRYVKRLHE [HMOX1] | 3.09 ± 0.4 | 3.4 ± 0.24 | – | –
75 | HTQVLPDVRLLPRRLPLAFRDATS [DYRK1B] | 2.84 ± 0.32 | 3.04 ± 0.22 | – | –
76 | MSQTVQRMLVAASWACAFTNALTH [OR3A1] | 3.3 ± 0.22 | 3.31 ± 0.23 | – | –
77 | FVEKNPTIVNFPITNVDLREYLSE [USP39] | 2.73 ± 0.66 | 3.01 ± 1 | – | –
78 | LHDCAESGSLEILQLLLGCKARME [FEM1A] | 2.41 ± 0.31 | 2.52 ± 0.29 | – | –
79 | VFSTMAGLEEADAEVSVISEADPQ [FBF1] | 5.18 ± 0.36 | 5.26 ± 0.25 | – | –
80 | SGHKLYIFLFQDILVLTRPVTRNE [NET1] | 2.6 ± 0.56 | 2.41 ± 0.48 | – | –
81 | RDLTQEQTEKLLQFQDLTGIESMD [FAF2] | 5.04 ± 0.11 | 5.05 ± 0.16 | – | –
82 | VAIFGPPNTLYEGGYFKAHIKFPI [UBE2R2] | 3.24 ± 1 | 2.95 ± 0.97 | – | –
83 | YKKIYFCHSCQLYLPSTEFSVSST [IQUB] | 2.39 ± 0.23 | 2.08 ± 0.22 | – | –
84 | CDDYFFIAHRGERRGIGGIFFDDL [CPOX] | 2.16 ± 0.31 | 1.96 ± 0.45 | – | –
85 | AINRDTAFPGASHESSGNPPLRVI [RHOBTB3] | 3.44 ± 0.049 | 3.47 ± 0.29 | – | –
86 | MGNLVMFRKDSVLNILIQSLDWET [INTS3] | 2.68 ± 0.64 | 2.82 ± 0.45 | – | –
87 | STPKLTSRSAAQDLDRMGVMTLPS [PPFIA4] | 4.03 ± 0.28 | 3.97 ± 0.056 | – | –
88 | RCIGVTKPIFHSTKITSKHVKMML [PTGFR] | 2.13 ± 0.27 | 2.15 ± 0.28 | – | –
89 | ESDTDGAGGNSSSSAAMQSSCSST [CCDC6] | 5.58 ± 0.2 | 5.69 ± 0.3 | – | –

Reference: the supplement of paper PMC10567573
